Measured values taken from PMC7018950, “A conserved strategy of chalcone isomerase-like protein to rectify promiscuous chalcone synthase specificity” (Nature Communications, 2020).

T1: His6-tagged Arabidopsis thaliana chalcone synthase (AtCHS) (Arabidopsis thaliana, UniProt P13114 1-395)
T1 construct: also called TT4; source: E. coli BL21 (pCold I), purified; not shown: His6, N-terminal, kept
T1 sequence (looked up): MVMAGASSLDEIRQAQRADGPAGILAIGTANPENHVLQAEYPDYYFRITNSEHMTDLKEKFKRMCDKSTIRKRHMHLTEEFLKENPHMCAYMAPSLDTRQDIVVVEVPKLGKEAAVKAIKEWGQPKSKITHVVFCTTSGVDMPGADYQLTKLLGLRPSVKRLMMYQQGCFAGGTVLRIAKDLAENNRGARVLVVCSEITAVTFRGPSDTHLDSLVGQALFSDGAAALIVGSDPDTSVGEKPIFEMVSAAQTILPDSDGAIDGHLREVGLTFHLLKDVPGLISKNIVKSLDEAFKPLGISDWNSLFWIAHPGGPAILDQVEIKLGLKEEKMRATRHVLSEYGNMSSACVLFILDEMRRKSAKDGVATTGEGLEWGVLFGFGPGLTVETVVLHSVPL

B1: His6-tagged CHS of morning glory (enzyme)
chain: MVTVEEVRKAQRAEGPATILAIGTATPANCVDQSTYPDYYFRITNSDHMTDLKQKFQRMCDKSMITKRYMHLTEEILKENPSFCEYMAPSLDARQDIVVVEVPKLGKEAAQSAIKEWGQPKSKITHVIFCTTSGVDMPGADYQLTKLLGLRPSVKRLMMYQQGCFAGGTVLRVAKDLAENNKAARVLVVCSEITVVTFRGPNETHLDSLVGQALFGDGAAAIIVGSDPTPAEKPLFQLVSAAQTLAPDSCGAIDGHLREVGLTFHLLKDVPSIVSNNIEKCLSEAFNPLGISDWNSIFWIAHPGGPAILDQVEDKLGLKPEKLRATRHVLSEYGNMSSACVLFILDEMRKASSNDGLGTTGEGLEWGVLFGFGPGLTIETVVLHSVPA
B2: glutathione S-transferase-tagged Arabidopsis thaliana chalcone isomerase-like protein (AtCHIL) (natural protein)
chain: MVMVHEVPFPPQIITSKPLSLLGQGITDIEIHFLQVKFTAIGVYLDPSDVKTHLDNWKGKTGKELAGDDDFFDALASAEMEKVIRVVVIKEIKGAQYGVQLENTVRDRLAEEDKYEEEEETELEKVVGFFQSKYFKANSVITYHFSAKDGICEIGFETEGKEEEKLKVENANVVGMMQRWYLSGSRGVSPSTIVSIADSISAVLT
notes: chalcone isomerase-like protein AtCHIL, Arabidopsis thaliana; source: E. coli (pGEX4T-1)

Assays:
[1] = molecular target: T2, glutathione S-transferase-tagged CHIL of morning glory (Ipomoea nil (morning glory)); experiment: BLI; BLItz; His6-tagged CHS immobilised on anti-His6 sensors, GST-tagged CHIL loaded; 100 mM HEPES-NaOH pH 7.5; 1:1 binding model; apparent KD; details: both partners purified
T2 construct: the purification of the GST fusions is not described; also called InCHIL; EFP; source: E. coli (pGEX4T-1)

[2] = molecular target: T1, His6-tagged Arabidopsis thaliana …; experiment: BLI; BLItz; His6-tagged CHS immobilised on anti-His6 sensors, GST-tagged CHIL loaded (30-150 s), wash (150-270 s); 100 mM HEPES-NaOH, pH 7.5; 1:1 binding model; apparent KD; details: both partners purified

| Binder | Kd [1] | Kd [2] | koff [2] | kon [2] |
| --- | --- | --- | --- | --- |
| B1 | 1 nM |  |  |  |
| B2 |  | 9.15 nM | 0.00137 s⁻¹ | 150000 M⁻¹ s⁻¹ |
